# Measured values: PMC10452240, “Biochemical Characterization of the Copper Nitrite Reductase from Neisseria gonorrhoeae” (Biomolecules, 2023)
# Target: the molecule itself
# Assay: SEC; Superdex 200 10/300 GL, 50 mM Tris-HCl pH 7.6, 150 mM NaCl; 50 nmol NgCuNiR; apparent molecular weight from a calibration curve (Gel Filtration Calibration Kit, High Molecular Weight)
protein,measurement,value
"copper-containing nitrite reductase from Neisseria gonorrhoeae, soluble domain (enzyme, the construct has no signal peptide; cytoplasmic 36.5 kDa protein; Holds one type 1 and one type 2 copper centre per monomer (2.0 ± 0.1 Cu per monomer); No removal of the His-tag is described; also called NgCuNiR; AniA) AAQATAETPAGELPVIDAVTTHAPEVPPAIDRDYPAKVRVKMETVEKTMKMDDGVEYRYWTFDGDVPGRMIRVREGDTVEVEFSNNPSSTVPHNVDFHAATGQGGGAAATFTAPGRTSTFSFKALQPGLYIYHCAVAPVGMHIANGMYGLILVEPKEGLPKVDKEFYIVQGDFYTKGKKGAQGLQPFDMDKAVAEQPEYVVFNGHVGSIAGDNALKAKAGETVRMYVGNGGPNLVSSFHVIGEIFDKVYVEGGKLINENVQSTIVPAGGSAIVEFKVDIPGSYTLVDHSIFRAFNKGALGQLKVEGAENPEIMTQKLSDTAYA",stoichiometry N,3
